Measured values from PMC1636348.

Target: DNA polymerase mu (Polμ) wild type (Homo sapiens, UniProt Q9NP87 1-494)
Assay: EMSA

Chain of DNA polymerase mu (Polμ) wild type (Q9NP87 whole entry): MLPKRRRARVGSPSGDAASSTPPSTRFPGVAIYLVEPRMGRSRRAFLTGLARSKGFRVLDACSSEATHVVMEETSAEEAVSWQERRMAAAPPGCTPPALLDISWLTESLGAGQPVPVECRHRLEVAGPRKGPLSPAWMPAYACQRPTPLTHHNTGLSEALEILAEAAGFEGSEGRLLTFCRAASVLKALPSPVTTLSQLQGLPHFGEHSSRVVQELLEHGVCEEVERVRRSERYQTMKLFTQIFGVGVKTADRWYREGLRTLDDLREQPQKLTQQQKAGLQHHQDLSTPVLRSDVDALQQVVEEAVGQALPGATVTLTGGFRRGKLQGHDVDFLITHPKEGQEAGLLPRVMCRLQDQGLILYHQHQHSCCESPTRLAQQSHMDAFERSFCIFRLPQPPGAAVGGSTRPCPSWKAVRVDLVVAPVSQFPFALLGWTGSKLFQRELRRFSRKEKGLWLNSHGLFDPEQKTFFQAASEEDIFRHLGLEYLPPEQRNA

B1: Blunt (P19+T19) (dsDNA)
DNA 1: GATCACAGTGAGTACAATA
DNA 2: TATTGTACTCACTGTGATC
- binding result: no binding
